Tests used:
[1] = target: immunodominant epitope of the MUC18 antigen; assay: phage ELISA, peptide coated at 100 ug/ml (control phage)
MUC18 antigen = target: T1, MUC18 antigen (human, UniProt P43121 24-646); assay: cell-based or functional assay
T1 sequence (looked up): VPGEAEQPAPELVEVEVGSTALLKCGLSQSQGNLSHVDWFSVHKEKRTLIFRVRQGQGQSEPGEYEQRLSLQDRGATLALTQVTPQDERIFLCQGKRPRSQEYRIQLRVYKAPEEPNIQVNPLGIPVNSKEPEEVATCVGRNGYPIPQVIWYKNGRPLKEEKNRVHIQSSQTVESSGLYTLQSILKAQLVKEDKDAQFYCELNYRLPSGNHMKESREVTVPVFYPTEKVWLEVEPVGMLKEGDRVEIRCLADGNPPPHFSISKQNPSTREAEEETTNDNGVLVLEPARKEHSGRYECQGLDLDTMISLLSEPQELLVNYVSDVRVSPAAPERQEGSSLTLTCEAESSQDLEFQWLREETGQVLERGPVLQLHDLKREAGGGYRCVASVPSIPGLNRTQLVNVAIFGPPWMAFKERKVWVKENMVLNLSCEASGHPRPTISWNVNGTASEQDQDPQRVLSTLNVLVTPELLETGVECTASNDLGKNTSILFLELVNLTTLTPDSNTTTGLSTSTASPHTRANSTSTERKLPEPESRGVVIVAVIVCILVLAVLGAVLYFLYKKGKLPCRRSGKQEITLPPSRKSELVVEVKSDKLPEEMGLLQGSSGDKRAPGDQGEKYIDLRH

unrelated peptide = assay: phage ELISA, well with unrelated peptide (control)
[2] = target: immunodominant epitope of the MUC18 antigen; assay: phage ELISA, peptide coated at 100 ug/ml
[3] = target: immunodominant epitope of the MUC18 antigen; assay: phage ELISA, peptide well against negative control well

## unrelated phage
[1]
  mean absorbance (OD 450 nm): 0.17 OD450

B1: anti-MUC18 human immunotoxin (other)
chain: GRGALVESGPGLVKPSETLFLTCTVSGGSISSYYWSWIRQPAGKGLEWIAYIYYSGSTNYNPSLKSRVTISVDTSNNQFSLKLSSVTAADTAVYYCAKLTAAGGHFDPWGQGTLVTVSSGGGGSGGGGSGGGGSDIVMTQSPSSLSASIGDRVTITCRASQGISNFLAWFQQKPGKAPKSLIYAASSLQSGVPSKFSGSGSGTDFTLAISSLQPEDFATYYCLQDSDYPLTFGGGTKLEIKRASGGPEGGSRHRQPRGWEQLADVVSLTCPVAAGECAGPADSGDALLERNYPTGAEFLGDGGAISFSTRGTQNWTVERLLQAHRQLEEGGYVFVGYHGTFLEAAQSIVFGGVRARSQDLDAIWAGFYIAGDPALAYGYAQDQEPDAAGRIRNGALLRVYVPRSSLPGFYATGLTLAAPEAAGEVERLIGHPLPLRLDAITGPEEAGGRLETILGWPLAERTVVIPSAIPTDPRNVGGDLDPSSIPDSEAAISALPDYASQPGKPPKDEL
MUC18 antigen
  IC50, MTT assay, A375 cells, 24 hours: ~2.1 nM
  IC50, MTT assay, DU145 cells, 24 hours: ~6.1 nM

B2: anti-MUC18 HscFv-displaying phage (scFv)
scFv: GRGALVESGPGLVKPSETLFLTCTVSGGSISSYYWSWIRQPAGKGLEWIAYIYYSGSTNYNPSLKSRVTISVDTSNNQFSLKLSSVTAADTAVYYCAKLTAAGGHFDPWGQGTLVTVSSGGGGSGGGGSGGGGSDIVMTQSPSSLSASIGDRVTITCRASQGISNFLAWFQQKPGKAPKSLIYAASSLQSGVPSKFSGSGSGTDFTLAISSLQPEDFATYYCLQDSDYPLTFGGGTKLEIKR
Unrelated peptide
  mean absorbance (OD 450 nm): 0.1 OD450
[2]
  mean absorbance (OD 450 nm): 1.6 OD450
[3]
  fold OD over negative control well: 4 fold

Source: patent US20180271994A1 (published 2018)
